Tests used:
PC-9 cells = assay: Antibody internalisation by immunofluorescence; format: cell-based; details: 37° C.; a proportion of cells not internalised at 120 min
[1] = system: normal cell lines (fibroblasts, endothelial and epithelial cells) and primary PBMCs; assay: Flow cytometry binding on normal cells; format: cell-based
Protocol: (§1) Cells were harvested as single cell suspensions using trypsin. 1E5 cells were used per sample, and incubated with 100 μl of mAb culture supernatant for 30 min. Cells were then washed with 1% bovine serum albumin in PBS, and further incubated with 100 μl of goat anti-mouse antibody fluorescein isothiocyanate (FITC)-conjugated (1:500, DAKO, Denmark) for 15 min at 4° C. in the dark. Cells were again washed and resuspended in 200 μL of 1% BSA/PBS for analysis on Guava® easy Cyte 8HT Benchtop Flow Cytometer (Merck Millipore, USA). For interrogation of […] binding, cells were fixed with 4% PFA/PBS (Affymetrix, USA) at room temperature for 10 min, washed in PBS, and permeabilised with 0.1% triton/PBS for 5 min at room temperature, before proceeding with incubation with mAb supernatant/primary antibody. For staining with propidium iodide, PI was added to a final concentration of 5 μg/mL for 5 min just prior to analysis by the flow cytometer.

PC-9 = assay: ADCC reporter bioassay (Promega, Luciferase reporter for FcγR); format: cell-based
Protocol: (§2) ADCC activity was measured using a reporter bioassay (Promega; ADCC Reporter Bioassay, #G7010). The ADCC bioassay was carried out according to the manufacturer's protocol Briefly, PC-9 and A549 cells were seeded at 5,000 cells per well in a 96-well clear bottom black tissue culture plates (Corning; #3904) in low 4% IgG-serum (Promega; #G711A) media and allowed to attach and spread overnight. Serial dilutions of Hu-GR6A04 were incubated in triplicate wells for approximately 15 min at 37° C., 5% CO2. Following incubation, engineered effector cells were added to the wells at approximately 150,000 cells per well. After 6 hours, Bio-Glo™ Luciferase Assay Substrate (Promega; #G719A and #G720A) was added to the wells and luminescence was measured using the Infinite® 200 microplate reader (Tecan).

A549−GR6A04+ = assay: as above; format: cell-based
Protocol: as §2

CEACAM6 = biological target: T1, CEACAM6 (Homo sapiens, UniProt P40199); assay: Western blot / flow cytometry binding after PNGase or Tunicamycin treatment; details: for binding to the antigen band after PNGase treatment: Western blot, PC-9 lysate, N-glycans removed
T1 construct: 20 μg of PC-9 membrane protein extract was first denatured; endogenous in cells; host or cells: PC-9 cells
T1 sequence (P40199 35-320): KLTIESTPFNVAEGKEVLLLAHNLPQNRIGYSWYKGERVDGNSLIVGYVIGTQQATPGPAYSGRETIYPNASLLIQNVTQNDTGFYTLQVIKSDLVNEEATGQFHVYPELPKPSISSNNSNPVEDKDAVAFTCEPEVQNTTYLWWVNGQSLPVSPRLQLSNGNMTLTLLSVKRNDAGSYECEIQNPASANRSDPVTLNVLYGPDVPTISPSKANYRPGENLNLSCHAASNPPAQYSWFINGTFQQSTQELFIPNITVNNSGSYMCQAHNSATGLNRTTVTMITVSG
Protocol: Membrane proteins were extracted from PC-9 cell pellets using the Membrane Protein Extraction Kit (BioVision, USA). Briefly, cell pellets of 5E7 cells were resuspended in 1 mL of Homogenize Buffer and cell membranes broken in a dounce homogenizer. This was transferred into an Eppendorf tube and centrifuged at 700×g for 10 min at 4° C. to remove cell debris. The supernatant was transferred to a new Eppendorf tube and centrifuged at 12,000×g for 30 min at 4° C. to pellet the membrane. The membrane was finally resuspended in 500 μl of 1×Cell Lysis Buffer (Cell Signaling Technology, USA) containing protease inhibitors (Pierce ThermoScientific, USA). The membrane protein solution was clarified with by centrifugation at 15,000×g for 5 min at 4° C., to remove any insoluble proteins. Protein was quantified using the Pierce […] Protein Assay Reagent.
PC-9 membrane protein extracts, or IP products were denatured by in protein loading dye containing SDS at a final concentration of 1%, and heated at 95° C. for 5 min. The sample was then loaded into pre-cast gradient gel (NuPAGE 4-12% gradient gel, Invitrogen), and separated by SDS-PAGE running MOPS Running Buffer (NuPAGE Invitrogen, USA). After gel electrophoresis, the resolved proteins were transferred onto a polyvinylidene fluoride (PVDF) membrane (BioRad, USA) in a transfer buffer containing 20% methanol, 10% Tris-Glycine in DI water at constant voltage of 110V for 90 min.
The membrane was then blocked with 5% milk prepared in PBS/0.1% Tween-20 (PBS-T) for 30 min at room temperature. The membrane was then washed in PBS-T, followed by overnight incubation of GR6A04 at 2 μg/mL in 2.5% milk at 4° C. Subsequently, the membrane was washed in PBS-T, before incubation with goat anti-mouse secondary antibodies horseradish peroxidase-conjugated (1:10000, Dako) for 1 hour at room temperature. […]
PNGase digestion was carried out according to manufacturer's protocol (New England Biolabs). […] Digested proteins were subsequently analysed by Western blotting as described above. […]

A549 = assay: Flow cytometry binding on A549 lung adenocarcinoma; format: cell-based; details: A549 parental, heterogeneous binding
Protocol: as §1

B1: GR6A04: mouse IgG1, κ anti-CEACAM6 monoclonal antibody, VH SEQ ID NO:1, VL SEQ ID NO:2, binds N-glycosylated CEACAM6 (antibody, V domains shown)
VH: SGPELVKPGASVKMSCKASGNTFTSYVMHWVKQKPGQGLEWIGYINPYNDGTKYNEKFKGKATLTSDKSSSTAYMELSSLTSEDSAVYYCARSTARATPYFYAMDYWGQGTSVTVSS
VL: DILMTQSPSSLAVTAGEKVTMRCKSSQSLLWSVNQNSYLSWYQLKQGQPPKLLLYGASIRESWVPDRFTGSGSGTDFTLTISNVHVEDLAVYYCQHNHGSFLPYTFGGGTKLEIK
modifications: Isolated antibody fragment
For B1, the time to internalise (PC-9 cells) was ≤ 120 min, the “binding on the cell surface of normal cells” value [1] was < 8% and the EC50 (PC-9) was 39.6 nM. For the same molecule, the EC50 (A549−GR6A04+) was 1.33 nM, the “binding after PNGase and Tunicamycin treatment” value (CEACAM6; PNGase digestion, Tunicamycin N-glycosylation inhibitor) was “affected” and the “binding to the antigen band after PNGase treatment” value (CEACAM6) was “abolished binding”. The “binding to the antigen band after PNGase treatment” value (CEACAM6; listed as GR 6A04) was “abolished” and the “GR6A04+ population (positive binding tail)” value (A549) was 15-30%.
